Experimental data published in US20100136580A1 (Genentech, published 2010).
No end group written: not given here.

T1: purified Dvl2PDZ domain polypeptide (human, UniProt O14641 248-364)
T1 construct: range 248-364; As used in the fluorescence polarization assay; also called DvlPDZ domain
T1 sequence (looked up): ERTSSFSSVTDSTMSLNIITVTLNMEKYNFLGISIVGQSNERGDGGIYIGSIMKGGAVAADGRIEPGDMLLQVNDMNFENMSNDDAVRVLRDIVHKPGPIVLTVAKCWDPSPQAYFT

T2: GST-Dvl2PDZ fusion protein (human, UniProt O14641 248-364)
T2 construct: range 248-364; Made with the pGEX E. coli expression system; also called GST-PDZ fusion protein; not shown: glutathione S-transferase (GST) encoded by plasmid pGEX
T2 sequence (looked up): T1 sequence (looked up)

B1: Peptide D2 (KWYGWF) (peptide)
peptide: Ac-KWYGWF
notes: synthetic peptide; D1 with Leu to Phe at position 0
B2: Peptide D3 (WKWYGWL) (peptide)
peptide: Ac-WKWYGWL
notes: synthetic peptide; D1 with a Trp extension at position -6
B3: Peptide D4 (WKWYGWF) (peptide)
peptide: Ac-WKWYGWF
notes: synthetic peptide; D2 with a Trp extension at position -6

Biological target: T1, purified Dvl2PDZ domain polypeptide
Assay: fluorescence polarization competition; 10 nM FAM-KWYGWL probe, 1 µM Dvl2PDZ
Protocol: (§1) The binding affinities of synthetic peptides were also measured by Flourescence polarization assay. Serial dilution of purified Dvl2PDZ domain polypeptide (1-10 μM) was incubated with 10 nM probe peptide (FAM-KWYGWL-COOH) (SEQ ID NO: 169) in PBS, 0.1% Triton X100 as 30 μl volume in 96-well black HE96 plates (LJL Biosystem, Inc, Calif.), and incubated for 15 minutes at room temperature. Polarization measurements were performed in Analyst platereader (LJL Biosystems, Inc., Sunnyvale, Calif.). […] Competition experiments were performed by addition of serial dilution of the free peptides (0-500 μM) to solution with 10 nM probe and 1 μM Dvl2PDZ. The polarization was measured and IC50 values were derived as described above. Kᵢ values were calculated as described previously.

| Binder | Ki |
| --- | --- |
| Ac-KWYGWL-OH (synthetic peptide) [Peptide D1 (KWYGWL-COOH)] | 725 nM |
| Ac-GEIVLWSDIPG-NH2 (synthetic internal peptide ligand) [Peptide N3 (GEIVLWSDIPG)] | 4620 nM |
| Ac-GWKDYGWIDG-NH2 (synthetic internal peptide ligand) [Peptide N2 (GWKDYGWIDG)] | 1210 nM |

Biological target: T1, purified Dvl2PDZ domain polypeptide
Assay: fluorescence polarization competition
Protocol: as §1
Flourescence polarization assay was used to measure the affinity of two internal peptide ligands N2 and N3 to DvlPDZ domain.

| Binder | fold lower affinity than D1 |
| --- | --- |
| Ac-GEIVLWSDIPG-NH2 (synthetic internal peptide ligand) [Peptide N3 (GEIVLWSDIPG)] | 6 fold |

Biological target: T2, GST-Dvl2PDZ fusion protein
Assay: competition ELISA; GST-Dvl2PDZ (600 nM) binding to immobilized biotin-KWYGWL
Protocol: Affinity assays-The binding affinities of peptides for Dvl2PDZ were determined as IC₅₀ values using a competition ELISA, as previously described. The IC₅₀ value was defined as the concentration of peptide that blocked 50% of PDZ domain binding to immobilized peptide. Assay plates were prepared by immobilizing an amino-terminally biotinylated peptide (KWYGWL_-COOH) (SEQ ID NO: 169) on Maxisorp immunoplates coated with neutravidin and blocked with BSA. A fixed concentration of GST-PDZ fusion protein (600 nM) in PBS, 0.5% BSA, 0.1% Tween 20 (PBT buffer) was preincubated for 1 h with serial dilutions of peptide and then transferred to the assay plates. After 15 min incubation, the plates were washed with PBS, 0.05% Tween 20, incubated with a mixture of anti-GST antibody (0.5 μg/m1) and horseradish peroxidase/rabbit anti-mouse IgG antibody conjugate (1:2000 dilution) in PBT buffer, washed again, and detected with TMB peroxidase substrate.

| Binder | IC50 |
| --- | --- |
| Ac-KWYGWL-OH (synthetic peptide) [Peptide D1 (KWYGWL-COOH)] | 1340 nM |
| B1 | 930 nM |
| B2 | 140 nM |
| B3 | 310 nM |
| Ac-KGFGML-OH (synthetic peptide) | 243000 nM |

Biological target: T1, purified Dvl2PDZ domain polypeptide
Assay: fluorescence polarization, direct titration of Dvl2PDZ against 10 nM probe
Protocol: as §1

| Binder | Kd |
| --- | --- |
| {FAM}-KWYGWL-OH (fluorescence polarization probe, 10 nM) [probe peptide (FAM-KWYGWL-COOH)] | 536 nM |

Biological target: DvlPDZ domain (endogenous Dvl in the treated cells)
Assay: cell-based or functional assay

| Binder | inhibition of Wnt3a-stimulated transcriptional activity (TopGlow assay, HEK293 cells) |
| --- | --- |
| Ac-RQIKIWFQNRRMKWKKKWYGWL [Ac-… (DVLp_C)] | 50% |

Biological target: T2, GST-Dvl2PDZ fusion protein
Assay: phage display selection on GST-Dvl2PDZ
Protocol: The libraries were cycled through rounds of binding selection with a GST-Dvl2PDZ fusion protein coated on 96-well Maxisorp immunoplates as the capture target. Phage were propagated in E. coli XL1-blue with M13-KO7 helper phage and 10 μM IPTG. After four rounds of binding selection, individual phage clones were analyzed in a high-throughput phage ELISA, and positive clones were subjected to DNA sequence analysis.
We used decapeptide libraries fused to the C-terminus or N-terminus of the phage coat protein. The library contained NNK degenerate codons that encoded all 20 natural amino acids. The possible occurrence of amber stop codons in the degenerate codon also provided for the display of shorter peptides for the C-terminal library. Each library was cycled through four rounds of binding selection with immobilized GST-Dvl2PDZ fusion protein as the capture target.

| Binder | binding result |
| --- | --- |
| LWRVTDYGWVGGG [SEQ ID NO 58] | binds |
| TVVWHDYGWIGGG [SEQ ID NO 59] | binds |
| LVQLTDYGWIGGG [SEQ ID NO 60] | binds |
| DTAYKDYGWIGGG [SEQ ID NO 61] | binds |
| SEWKNYGYIGGG [SEQ ID NO 62] | binds |
| EWILTDYGVVGGG [SEQ ID NO 63] | binds |
| LWRVTDYGWVGGG [SEQ ID NO 64] | binds |
| TVVWHDYGWIGGG [SEQ ID NO 65] | binds |
| ETSWKQYGWIGGG [SEQ ID NO 66] | binds |
| PYTWINYGWVGGG [SEQ ID NO 67] | binds |
| DSLKYYGWIGGG [SEQ ID NO 68] | binds |
| QYRFIDYGWIGGG [SEQ ID NO 69] | binds |
| SAYKCYGWIDGGG [SEQ ID NO 70] | binds |
| SIIYYGWLDGGG [SEQ ID NO 71] | binds |
| TDYGWIDYPP [SEQ ID NO 72] | binds |
| LVPIFYGWIDGGG [SEQ ID NO 73] | binds |
| ASLKYYGWLDGGG [SEQ ID NO 74] | binds |
| TRFTNYGWLDGGG [SEQ ID NO 75] | binds |
| AWIVDYGWIDGGG [SEQ ID NO 76] | binds |
| TEYGWMDYHP [SEQ ID NO 77] | binds |
| LILVNYGWIDGGG [SEQ ID NO 78] | binds |
| WTIRDYGWLDGGG [SEQ ID NO 79] | binds |
| VWHYYGWLDGGG [SEQ ID NO 80] | binds |
